# In paper PMC9653972, “Thermophilic Inorganic Pyrophosphatase Ton1914 from Thermococcus onnurineus NA1 Removes the Inhibitory Effect of Pyrophosphate” (International Journal of Molecular Sciences, 2022):
# Substrate: O=P(O)(O)OP(=O)(O)O
# Assay: purified protein
# Type: biochemical, Thermococcus onnurineus
# Settings: standard assay: 2 mM MgCl2, 50 mM Tris-HCl, 80 °C, optimum pH 9.0 (pH of the kinetic run not stated)
protein,measurement,value
"Ton1914 (Thermococcus onnurineus NA1) (protein, about 120 kDa native-PAGE, homo-hexamer; pET28a Nco I/Xho I, E. coli BL21(DE3), heat-purified 80 °C; EC 3.6.1.1, Family I) MNPFHELEPGPEVPEVVYALIEIPKGSRNKYELDKKTGLLKLDRVLYSPFFYPVDYGIIPQTWYDDGDPFDIMVIMREPVYPLTIVEARPIGIMKMEDSGDKDWKVLAVPVEDPYFNDWKDIDDVPKAFLDEIAHFFQRYKELQGKVTTVEGWGTAEEAKREILRAIEMYKEKFGKKE",Km,1116 µM
same,kcat,30000 s⁻¹
same,kcat/Km,2.68e+07 M⁻¹ s⁻¹
